Results as given in patent publication US20060193821, “Aptamers to the human IL-12 cytokine family and their use as autoimmune disease therapeutics” (published 2006).

B1: AMX91-G1 (ssRNA)
RNA: GGGAAAAGCGAAUCAUACACAAGAUAUGUGCCUGGGAUGGACGACAUCCCCUGUCUAAGGAUAUGCUCCGCCAGAGACCAACCGAGAA
modifications: 2'-F C and U, 2'-OH A and G
B2: AMX86-D5 (ssRNA)
RNA: GGGAAAAGCGAAUCAUACACAAGAGAGGUAUGUGGUUUUGCGGAGCAACUCGUGUCAGCGGUCAGCUCCGCCAGAGACCAACCGAGAA
modifications: 2'-F C and U, 2'-OH A and G
B3: AMX84-A11 (ssRNA)
RNA: B2 RNA
modifications: 2'-F C and U, 2'-OH A and G
B4: AMX86-D6 (ssRNA)
RNA: GGGAAAAGCGAAUCAUACACAAGAUUAGGCGUCGUGACAAUAACUGGUCCACGAGCAUGUCAGUGCUCCGCCAGAGACCAACCGAGAA
modifications: 2'-F C and U, 2'-OH A and G
B5: AMX91-B8 (ssRNA)
RNA: GGGAAAAGCGAAUCAUACACAAGAAUCCUGGCUUCGCAUAGUGUAUGGGUAGUACGACAGCGCGUGCUCCGCCAGAGACCAACCGAGAA
modifications: 2'-F C and U, 2'-OH A and G
B6: AMX86-G10 (ssRNA)
RNA: GGGAAAAGCGAAUCAUACACAAGAGUCAUGGCUUACAAUUGAAACAAGAGCUCGCGUGACACAUGCUCCGCCAGAGACCAACCGAGAA
modifications: 2'-F C and U, 2'-OH A and G
B7: AMX91-H8 (ssRNA)
RNA: GGGAAAAGCGAAUCAUACACAAGAACGCAUAGUCGGAUUUACCGAUCAUUCUGUGCCUUCGUGACGCUCCGCCAGAGACCAACCGAGAA
modifications: 2'-F C and U, 2'-OH A and G
B8: AMX84-C11 (ssRNA)
RNA: GGGAAAAGCGAAUCAUACACAAGAAUGGUCGGAAUCUCUGGCGCCACGCUGAGUAUAGACGGAAGCUCCGCCAGAGACCAACCGAGAA
modifications: 2'-F C and U, 2'-OH A and G
B9: AMX91-B5 (ssRNA)
RNA: GGGAAAAGCGAAUCAUACACAAGACAGUGUAUGAGGAAGAUUACUUCCAUUCCUGAGCGGUUUUCGCUCCGCCAGAGACCAACCGAGAA
modifications: 2'-F C and U, 2'-OH A and G
B10: AMX84-E12 (ssRNA)
RNA: GGGAAAAGCGAAUCAUACACAAGAAGUUUUUGUGCUCUGAGUACUCAGCGUCCGUAAGGGAUAUGCUCCGCCAGAGACCAACCGAGAA
modifications: 2'-F C and U, 2'-OH A and G
B11: AMX91-A6 (ssRNA)
RNA: GGGAAAAGCGAAUCAUACACAAGAUUGGCAAUGUGACCUUCAACCCUUUUCCCGAUGAACAGUGGCUCCGCCAGAGACCAACCGAGAA
modifications: 2'-F C and U, 2'-OH A and G
B12: AMX91-F11 (ssRNA)
RNA: GGGAAAAGCGAAUCAUACACAAGACGCGUCAGGUCCACGCUGAAAUUUAUUUUCGGCAGUGUAAGCUCCGCCAGAGACCAACCGAGAA
modifications: 2'-F C and U, 2'-OH A and G
B13: AMX91-G11 (ssRNA)
RNA: GGGAAAAGCGAAUCAUACACAAGACUUAACAGUGCGGGGCGCAGUGUAUAGAUCCGCAAUGUGUGCUCCGCCAGAGACCAACCGAGAA
modifications: 2'-F C and U, 2'-OH A and G
B14: AMX91-E3 (ssRNA)
RNA: GGGAAAAGCGAAUCAUACACAAGAUUACUCCGUUAGUGUCAGUUGACGGAGGGAGCGUACUAUUGCUCCGCCAGAGACCAACCGAGAA
modifications: 2'-F C and U, 2'-OH A and G
B15: AMX86-B10 (ssRNA)
RNA: GGGAAAAGCGAAUCAUACACAAGAGAACGAGUAUAUUUGCGCUGGCGGAGAAGUCUCUCGAAGGGAGCUCCGCCAGAGACCAACCGAGAA
modifications: 2'-F C and U, 2'-OH A and G
B16: AMX86-C5 (ssRNA)
RNA: GGGAAAAGCGAAUCAUACACAAGAGUUUUAUGUGGGUCCCGAUGAUUAACUUUAUUGGCGCAUUGCUCCGCCAGAGACCAACCGAGAA
modifications: 2'-F C and U, 2'-OH A and G
B17: AMX91-D9 (ssRNA)
RNA: GGGAAAAGCGAAUCAUACACAAGAGUGUAUUACCCCCAACCCAGGGGGACCAUUCGCGUAACAAGCUCCGCCAGAGACCAACCGAGAA
modifications: 2'-F C,U
B18: AMX91-G7 (ssRNA)
RNA: GGGAAAAGCGAAUCAUACACAAGACAUGACUGCAUGCUUCGGGAGUAUCUCGGUCCCGACGUUCGCUCCGCCAGAGACCAACCGAGAA
modifications: 2'-F C,U
B19: AMX91-G9 (ssRNA)
RNA: GGGAAAAGCGAAUCAUACACAAGAAUUGUGCUUACAACUUUCGUUGUACCGACGUGUCAGUUAUGCUCCGCCAGAGACCAACCGAGAA
modifications: 2'-F C,U
B20: AMX91-C12 (ssRNA)
RNA: GGGAAAAGCGAAUCAUACACAAGACGAUAGUAUGACCUUUUGAAAGGCUUCCCGAGCGGUGUUCGCUCCGCCAGAGACCAACCGAGAA
modifications: 2'-F C,U
B21: AMX91-H7 (ssRNA)
RNA: GGGAAAAGCGAAUCAUACACAAGACUUAUCGCCUCAAGGGGGGUAAUAAACCCAGCGUGUGCAUGCUCCGCCAGAGACCAACCGAGAA
modifications: 2'-F C,U
B22: ARC1167 (mixed)
RNA: ACAGGCAAGUAAUUGGGGAGUGCGGGCGGGGUGU
modifications: deoxy A,G; 2'-OMe C,U; PS 28-29 [PS linkage 28-29; 2'-OMe C,U at 2,6,10,13,14,21,23,27,32,34; all A,G 2'-deoxy]
B23: ARC1158 (mixed)
RNA: B22 RNA
modifications: deoxy A,G; 2'-OMe C,U; PS 13-14 [PS between 13-14; 2'-OMe C,U at 2,6,10,13,14,21,23,27,32,34; deoxy A,G at all other positions]
B24: ARC1156 (mixed)
RNA: B22 RNA
modifications: deoxy A,G; 2'-OMe C,U; PS 11-12 [PS between 11-12; 2'-OMe C,U at 2,6,10,13,14,21,23,27,32,34; deoxy A,G at all other positions]
B25: ARC1166 (mixed)
RNA: B22 RNA
modifications: deoxy A,G; 2'-OMe C,U; PS 27-28 [PS between 27-28; 2'-OMe C,U at 2,6,10,13,14,21,23,27,32,34; deoxy A,G at all other positions]
B26: ARC1155 (mixed)
RNA: B22 RNA
modifications: deoxy A,G; 2'-OMe C,U; PS 10-11 [PS between 10-11; 2'-OMe C,U at 2,6,10,13,14,21,23,27,32,34; deoxy A,G at all other positions]

Biological target: T1, IL-23 (human, p19/p40 heterodimer) (Homo sapiens, UniProt Q9NPF7;P29460 SEQ:20-189,SEQ:23-328)
Assay: cell_activity; TransAM STAT3, PHA blasts
Details: tags: R&D Systems
Method: (§1) In summary, the cell-based assay was conducted by isolating the peripheral blood mononuclear cells (PBMCs) from whole blood using a Histopaque gradient (Sigma, St. Louis, Mo.). The PBMCs were cultured for 3 to 5 days at 37° C./5% CO₂ in Peripheral Blood Medium (Sigma) which contains PHA, supplemented with IL-2 (100 units/mL) (R&D Systems, Minneapolis, Minn.), to generate PHA Blasts. To test IL-23 aptamers, the PHA Blasts were washed twice with 1×PBS, then serum starved for four hours in RPMI, 0.20% FBS. After serum starvation, approximately 2 million cells were aliquotted into appropriately labeled eppendorf tubes. hIL-23 at a final constant concentration of 3 ng/mL (R&D Systems, Minneapolis, Minn.) was combined with a dilution series of various IL-23 aptamers as described in Example 1, and the cytokine/aptamer mixture was added to the aliquotted cells in a final volume of 100 μl and incubated at 37° C. for 10-12 minutes. The incubation reaction was stopped by adding 1 mL of ice-cold PBS with 1.5 mM Na₃VO₄. Cell lysates were made using the lysis buffer provided by the TransAM™ STAT 3 assay following the manufacturer's instructions. FIG. 20 depicts a flow summary of the protocol used for the cell based assay.
(§2) Full length clones from the rRfY selection described in Example 1A, and select minimized rRfY clones that were described in Example 2A. 1, were tested using the TransAM™ STAT3 activation assay. Table 34 summarizes the cell based assay data for IL-23 full length aptamers generated from the rRfY selections described in Example 1A. 1, each compared to the activity of their respective parent (full length) clone.

T1 sequence (Q9NPF7 20-189, chain 1 of 2): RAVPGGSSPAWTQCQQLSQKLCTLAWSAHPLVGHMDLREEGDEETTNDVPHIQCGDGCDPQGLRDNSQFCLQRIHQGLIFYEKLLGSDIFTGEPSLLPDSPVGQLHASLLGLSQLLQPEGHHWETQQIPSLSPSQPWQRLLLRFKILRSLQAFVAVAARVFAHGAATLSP
T1 sequence (P29460 23-328, chain 2 of 2): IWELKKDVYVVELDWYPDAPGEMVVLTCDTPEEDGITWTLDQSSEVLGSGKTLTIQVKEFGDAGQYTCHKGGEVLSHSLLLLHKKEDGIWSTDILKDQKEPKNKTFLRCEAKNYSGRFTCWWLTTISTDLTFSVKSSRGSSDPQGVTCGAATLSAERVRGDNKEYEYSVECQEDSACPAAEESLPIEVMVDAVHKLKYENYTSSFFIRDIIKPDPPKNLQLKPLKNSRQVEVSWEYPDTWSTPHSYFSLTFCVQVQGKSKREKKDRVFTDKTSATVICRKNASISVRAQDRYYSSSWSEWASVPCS

Binder | IC50
B1 | 2000 nM
B2 | > 5000 nM
B3 | > 5000 nM
B4 | > 5000 nM
B5 | 450 nM
B6 | ~2000 nM
B7 | 3000 nM
B8 | 800 nM
B9 | 1000 nM
B10 | > 1000 nM
B11 | 3000 nM
B12 | 5000 nM
B13 | 3000 nM
B14 | > 5000 nM
B15 | 800 nM
B16 | 3000 nM

Biological target: IL-12 (human, p35/p40 heterodimer) (Homo sapiens, UniProt P29459;P29460 SEQ:57-253,SEQ:23-328)
Assay: filter; no significant binding
Details: not given

IL-12 (human, p35/p40 heterodimer), sequence (P29459 23-219, chain 1 of 2): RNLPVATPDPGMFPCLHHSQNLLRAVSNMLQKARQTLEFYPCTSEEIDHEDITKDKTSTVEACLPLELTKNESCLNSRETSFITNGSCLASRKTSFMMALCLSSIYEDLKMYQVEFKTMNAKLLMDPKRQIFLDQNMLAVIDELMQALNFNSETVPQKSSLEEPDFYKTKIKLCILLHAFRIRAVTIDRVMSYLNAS
IL-12 (human, p35/p40 heterodimer), sequence (P29460 23-328, chain 2 of 2): as the sequence (P29460 23-328, chain 2 of 2) above

Binder | binding result
B17 | no binding
B18 | no binding
B19 | no binding
B20 | no binding
B21 | no binding

Biological target: T1, IL-23 (human, p19/p40 heterodimer)
Assay: filter; SHMCK, tRNA
Details: tags: R&D Systems, carrier free
Method: Monitoring Progress of rRfY Selection. Dot blot binding assays were performed throughout the selections to monitor the protein binding affinity of the pools. Trace ³²P-labeled RNA was combined with a dilution series of h-IL-23 and incubated at room temperature for 30 minutes in 1×SHMCK (20 mM Hepes, 120 mM NaCl, 5 mM KCl, 1 mM MgCl₂, 1 mM CaCl₂, pH 7.4) plus 0.1 mg/mL tRNA for a final volume of 20 μL. The binding reactions were analyzed by nitrocellulose filtration using a Minifold I dot-blot, 96-well vacuum filtration manifold (Schleicher & Schuell, Keene, N.H.). A three-layer filtration medium was used, consisting (from top to bottom) of Protran nitrocellulose (Schleicher & Schuell), Hybond-P nylon (Amersham Biosciences) and GB002 gel blot paper (Schleicher & Schuell). RNA that is bound to protein is captured on the nitrocellulose filter, whereas the non-protein bound RNA is captured on the nylon filter. The gel blot paper was included simply as a supporting medium for the other filters. Following filtration, the filter layers were separated, dried and exposed on a phosphor screen (Amersham Biosciences, Piscataway, N.J.) and quantified using a Storm 860 Phosphorimager® blot imaging system (Amersham Biosciences).
When a significant positive ratio of binding of RNA in the presence of h-IL-23 versus in the absence of h-IL-23 was seen, the pools were cloned using a TOPO TA cloning kit (Invitrogen, Carlsbad, Calif.) according to the manufacturer's instructions. For the h-IL-23 and X-IL-23 selections, the Round 8 pool templates were cloned, and 32 individual clones from each selections were assayed in a 1-point dot blot screen (+/−75 nM h-IL-23, as well as a separate screen at +/−75 nM h-IL-12). For the PN-IL-23 selection, the Round 10 pool was cloned and sequenced, and 8 unique clones were assayed for protein binding in a 1-point dot blot screen (+/−200 nM h-IL-23 and a separate screen at +/−200 nM h-IL-12). Subsequently, the Round 10 PN-IL-23 pool was re-cloned for further sequences, as well as the R12 PN-IL-23 pool, and the clones were assayed for protein binding in a 1 point do blot screen (+/−100 nM h-IL-23 or +/−200 nM h-IL-12).

Binder | Kd
B17 | 44.6 nM
B18 | 63.6 nM
B19 | 33 nM
B20 | 30.7 nM
B21 | 71 nM

Biological target: T1, IL-23 (human, p19/p40 heterodimer)
Assay: cell_activity; TransAM STAT3
Details: tags: R&D Systems, carrier free
Method: as §1, §2

Binder | IC50
B17 | 150 nM
B18 | 150 nM
B19 | 50 nM
B20 | 50 nM
B21 | 50 nM

Biological target: T1, IL-23 (human, p19/p40 heterodimer)
Assay: filter; -tRNA
Details: tags: R&D Systems, carrier free
Method: These molecules were gel purified and assayed for IL-23 binding using the dot blot assay as described above and compared to each other and to the parent molecule, ARC979. An 8 point IL-23 titration (0 nM to 300 nM, 3 fold serial dilutions) was used in the binding assay.

Binder | Kd
B22 | 107 nM
ACAGGCAAGUAAUUGGGGAGUGCGGGCGGGGUGU (mixed, deoxy A,G; 2'-OMe C,U; PS 8-9) [ARC1153] | 174 nM
B23 | 192 nM
B24 | 369 nM
B25 | 132 nM
ACAGGCAAGUAAUUGGGGAGUGCGGGCGGGGUGU (mixed, deoxy A,G; 2'-OMe C,U; PS 7-8) [ARC1152] | 232 nM
B26 | 168 nM
ACAGGCAAGUAAUUGGGGAGUGCGGGCGGGGUGU (mixed, deoxy A,G; 2'-OMe C,U; PS 6-7) [ARC1151] | 142 nM
